# Experimental data published in patent US8202695 (TUFTS UNIVERSITY, dated 2012).
# Target: the molecule itself
# Experiment: X-ray crystals of CodY grown with GTP, with isoleucine and valine, or without effectors
protein,measurement,value
"Bacillus subtilis CodY protein (other, UniProt P39779 2-259, looked up, For crystallization, B. subtilis CodY was overproduced in E. coli with a C-terminal or an N-terminal 6xHis tag; also called purified CodY protein) ALLQKTRIINSMLQAAAGKPVNFKEMAETLRDVIDSNIFVVSRRGKLLGYSINQQIENDRMKKMLEDRQFPEEYTKNLFNVPETSSNLDINSEYTAFPVENRDLFQAGLTTIVPIIGGGERLGTLILSRLQDQFNDDDLILAEYGATVVGMEILREKAEEIEEEARSKAVVQMAISSLSYSELEAIEHIFEELDGNEGLLVASKIADRVGITRSVIVNALRKLESAGVIESRSLGMKGTYIKVLNNKFLIELENLKSH",binding result,binds
